The results in this text go back to PMC5971433.

Assay [1] concerns the target MtrCAB porin–cytochrome complex (Shewanella oneidensis MR-1).
Assay [2] deals with MtrAB (native, the MtrAB component of the MtrCAB complex) (Shewanella oneidensis MR-1). Description: small-angle neutron scattering (SANS); co-purified native MtrCAB at 3.5 and 9.7 mg/ml in 20 mM HEPES pH 7.8, 100 mM NaCl, 2.8 mM Fos-choline-12, 13% D2O (detergent contrast-matched); molecular mass from I(0), ab initio envelope.

In assay [1], “small tetraheme cytochrome (STC) (natural protein)” came in with a rate of electron transfer from STC internalised in MtrCAB proteoliposomes to external Fe(III) citrate (absorbance at 550 nm) (nM electrons s^-1) of 61 and a rate of electron transfer from external sodium dithionite to STC internalised in MtrCAB proteoliposomes (absorbance at 550 nm) (nM electrons s^-1) of 140.
As to “MtrC (native, from the MtrCAB complex) (natural protein)”, in assay [2], the stoichiometry N (as a rule, the number of molecules, sites or subunits per partner or assembly) turned out to be 1.
